Measured values from PMC2649783.

Target: HUαβ (Escherichia coli (overexpressed in …, UniProt P0ACF0;P0ACF4 1-90;1-90))
Assay: ITC

HUαβ (Escherichia coli, sequence (P0ACF0 whole entry, chain 1 of 2): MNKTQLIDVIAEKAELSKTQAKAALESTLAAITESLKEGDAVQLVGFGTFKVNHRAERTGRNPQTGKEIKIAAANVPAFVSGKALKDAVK
HUαβ (Escherichia coli, sequence (P0ACF4 whole entry, chain 2 of 2): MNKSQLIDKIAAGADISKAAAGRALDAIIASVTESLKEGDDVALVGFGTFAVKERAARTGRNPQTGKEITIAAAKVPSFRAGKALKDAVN

B1: 38 bp DNA (dsDNA)
DNA 1: CGGTCAGTTCAAGCCCTTCTAAGTTTGTAGACACCAGC
DNA 2: GCTGGTGTCTACAAACTTAGAAGGGCTTGAACTGACCG
  binding result: binds
